From US20150164800A1, “REGULATING THE INTERACTION BETWEEN TAM LIGANDS AND LIPID MEMBRANES WITH EXPOSED PHOSPHATIDYL SERINE” (priority 2012, published 2015)

Legend:
[1] = molecular target: Axl (Mus musculus, UniProt Q00993); assay type: cell-based
[2] = molecular target: T1, Mer (Mus musculus, UniProt Q60805); assay type: cell-based; conditions: WT-BMDCs
[3] = molecular target: T1, Mer; assay: Gas6-stimulated TAM receptor activation (phosphotyrosine IP-immunoblot) in BMDMs, Mer; assay type: cell-based; conditions: WT-BMDMs pre-treated 30 min, stimulated with 10 nM Gas6 for 10 min; FIG. 4B
Experimental: Immunoprecipitation and immunoblot analysis was conducted as described above.

[4] = system: EbGP-pseudotyped virus; assay type: cell-based, mouse; conditions: 300 nM, 24 h post-infection, FIG. 4C
[5] = system: Axl; assay type: cell-based, mouse; conditions: 100 nM, BMDCs; FIG. 5B
[6] = system: DENV; conditions: Axl-expressing HEK293 cells; concentration approximately 7-fold higher than 100 nM; Meertens et al. (2012); cited from earlier work

T1 sequence (Q60805 19-994): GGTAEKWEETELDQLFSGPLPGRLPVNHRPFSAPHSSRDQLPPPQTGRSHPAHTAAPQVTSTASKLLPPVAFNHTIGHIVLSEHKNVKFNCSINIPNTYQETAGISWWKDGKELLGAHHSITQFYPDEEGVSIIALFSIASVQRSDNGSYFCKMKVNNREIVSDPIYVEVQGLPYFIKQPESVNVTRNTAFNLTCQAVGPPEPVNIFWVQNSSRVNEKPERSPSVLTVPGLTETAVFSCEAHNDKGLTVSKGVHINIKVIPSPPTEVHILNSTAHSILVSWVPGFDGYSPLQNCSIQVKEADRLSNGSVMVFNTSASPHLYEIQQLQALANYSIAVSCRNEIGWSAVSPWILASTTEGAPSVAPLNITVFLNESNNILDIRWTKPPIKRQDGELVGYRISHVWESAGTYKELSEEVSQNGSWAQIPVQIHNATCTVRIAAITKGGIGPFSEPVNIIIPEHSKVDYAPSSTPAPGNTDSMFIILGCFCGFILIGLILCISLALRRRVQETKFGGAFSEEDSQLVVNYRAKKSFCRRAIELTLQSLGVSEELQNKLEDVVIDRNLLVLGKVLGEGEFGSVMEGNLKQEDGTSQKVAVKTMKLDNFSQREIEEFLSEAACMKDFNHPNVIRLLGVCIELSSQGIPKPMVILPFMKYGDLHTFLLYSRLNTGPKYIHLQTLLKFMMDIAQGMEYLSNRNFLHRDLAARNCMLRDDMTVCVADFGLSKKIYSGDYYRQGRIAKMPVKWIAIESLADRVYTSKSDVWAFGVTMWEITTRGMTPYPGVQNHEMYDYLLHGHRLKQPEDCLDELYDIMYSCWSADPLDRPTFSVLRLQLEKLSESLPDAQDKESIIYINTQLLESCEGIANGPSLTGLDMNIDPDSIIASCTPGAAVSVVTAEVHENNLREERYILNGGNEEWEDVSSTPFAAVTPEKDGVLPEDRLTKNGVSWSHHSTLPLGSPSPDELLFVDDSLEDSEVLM
Axl (Mus musculus, UniProt Q00993), sequence (Q00993 19-888): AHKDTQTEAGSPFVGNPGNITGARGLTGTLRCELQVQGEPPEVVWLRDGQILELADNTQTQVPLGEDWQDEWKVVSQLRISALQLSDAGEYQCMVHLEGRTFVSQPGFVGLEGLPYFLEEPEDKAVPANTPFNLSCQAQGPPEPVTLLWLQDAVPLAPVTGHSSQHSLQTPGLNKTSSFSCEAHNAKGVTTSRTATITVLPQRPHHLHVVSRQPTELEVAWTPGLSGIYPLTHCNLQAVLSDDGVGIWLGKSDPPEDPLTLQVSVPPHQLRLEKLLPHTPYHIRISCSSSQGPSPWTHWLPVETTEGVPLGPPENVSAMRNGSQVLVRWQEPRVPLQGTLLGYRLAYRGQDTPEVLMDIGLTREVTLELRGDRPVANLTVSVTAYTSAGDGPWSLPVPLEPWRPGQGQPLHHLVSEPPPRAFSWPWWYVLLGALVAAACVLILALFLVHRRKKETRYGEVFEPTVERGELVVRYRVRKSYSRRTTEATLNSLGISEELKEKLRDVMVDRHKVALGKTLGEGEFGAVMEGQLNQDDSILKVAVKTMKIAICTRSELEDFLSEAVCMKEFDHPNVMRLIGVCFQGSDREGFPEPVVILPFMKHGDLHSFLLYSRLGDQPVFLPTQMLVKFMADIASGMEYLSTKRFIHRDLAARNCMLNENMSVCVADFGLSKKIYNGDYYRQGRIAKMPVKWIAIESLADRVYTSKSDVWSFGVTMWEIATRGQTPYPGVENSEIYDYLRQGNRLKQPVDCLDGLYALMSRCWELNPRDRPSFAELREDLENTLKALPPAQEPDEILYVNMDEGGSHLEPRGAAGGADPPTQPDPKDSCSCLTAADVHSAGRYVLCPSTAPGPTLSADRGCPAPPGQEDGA
Axl, sequence (Q00993 19-888): as above

In the case of “Gas6: recombinant mouse Gas6, pan-TAM ligand”, the “potentiation of Gas6-induced Axl activation by bald HIV-1 virions versus VSVg-pseudotyped virions” value ([1]; BMDCs, bald virions lacking viral glycoproteins, FIG. 6B) is reported as “equally competent”, the “virus-mediated potentiation of ligand-triggered signaling with MAV-1 (Axl)” value ([1]; WT-BMDCs, 1 nM mGas6 plus non-enveloped MAV-1) is reported as “not seen” and the “Axl activation by ligand alone” value ([1]; WT-BMDCs, 0.25-1 nM mGas6, 5 min, FIG. 2B) is reported as “rapid dose-dependent activation”. The “effect of VSVg pseudotyped virus on stimulatory effect of ligand (Axl activation)” value ([1]; WT-BMDCs, ligand plus enveloped VSVg pseudotyped virus, dose-response shifted to lower concentrations) was “dramatically potentiated”.

In the case of “Protein S: purified human Protein S, TAM ligand (Mer and Tyro3 ligand)”, the “virus-mediated potentiation of ligand-triggered signaling with MAV-1 (Mer)” value ([2]; 1 nM hProS plus non-enveloped MAV-1) is reported as “not seen”, the “Mer activation by ligand alone” value ([2]; 0.5-2 nM hProS, 5 min, FIG. 2A) is reported as “rapid dose-dependent activation” and the “effect of VSVg pseudotyped virus on stimulatory effect of ligand (Mer activation)” value ([2]; ligand plus enveloped VSVg pseudotyped virus, dose-response shifted to lower concentrations) is reported as “dramatically potentiated”.

For `CCOc1ccn(-c2ccc(F)cc2)c(=O)c1C(=O)Nc1ccc(Oc2ccnc(N)c2Cl)c(F)c1` [BMS-777607], the “concentrations effectively inhibiting ligand-dependent receptor activation (Mer)” value [3] was 30 to 300 nM, the “effect on infection deficiency of TAM TKO BMDCs (HIV-1 DNA level)” value ([4]; TAM TKO-BMDCs) was “not further reduced” and the “susceptibility to virus infection (HIV-1 DNA level) versus untreated WT BMDCs” value ([4]; WT-BMDCs) was “much less susceptible”.

B1: Annexin V: a known PtdSer-binding protein (protein, UniProt P08758 2-320, looked up)
Annexin A5: AQVLRGTVTDFPGFDERADAETLRKAMKGLGTDEESILTLLTSRSNAQRQEISAAFKTLFGRDLLDDLKSELTGKFEKLIVALMKPSRLYDAYELKHALKGAGTNEKVLTEIIASRTPEELRAIKQVYEEEYGSSLEDDVVGDTSGYYQRMLVVLLQANRDPDAGIDEAQVEQDAQALFQAGELKWGTDEEKFITIFGTRSVSHLRKVFDKYMTISGFQIEETIDRETSGNLEQLLLAVVKSIRSIPAYLAETLYYAMKGAGTDDHTLIRVMVSRSEIDLFNIRKEFRKNFATSLYSMIKGDTSGDYKKALLLLCGEDD
For B1, the “effect on VSVg-HIV potentiation of the Gas6 dose-response curve for Axl activation” value [5] is listed as “significantly attenuated” and the “reduction in DENV infection” value [6] is listed as roughly 60%.
